Reference: patent US20170210818A1 (CALIFORNIA INSTITUTE FOR BIOMEDICAL RESEARCH, published 2017)

Target: T1, CD19 on Nalm-6 cells (UniProt P15391 20-556, limits assumed)
T1 construct: whole, on cells; also called Nalm-6 cells (CD19 positive cells)
T1 sequence (looked up): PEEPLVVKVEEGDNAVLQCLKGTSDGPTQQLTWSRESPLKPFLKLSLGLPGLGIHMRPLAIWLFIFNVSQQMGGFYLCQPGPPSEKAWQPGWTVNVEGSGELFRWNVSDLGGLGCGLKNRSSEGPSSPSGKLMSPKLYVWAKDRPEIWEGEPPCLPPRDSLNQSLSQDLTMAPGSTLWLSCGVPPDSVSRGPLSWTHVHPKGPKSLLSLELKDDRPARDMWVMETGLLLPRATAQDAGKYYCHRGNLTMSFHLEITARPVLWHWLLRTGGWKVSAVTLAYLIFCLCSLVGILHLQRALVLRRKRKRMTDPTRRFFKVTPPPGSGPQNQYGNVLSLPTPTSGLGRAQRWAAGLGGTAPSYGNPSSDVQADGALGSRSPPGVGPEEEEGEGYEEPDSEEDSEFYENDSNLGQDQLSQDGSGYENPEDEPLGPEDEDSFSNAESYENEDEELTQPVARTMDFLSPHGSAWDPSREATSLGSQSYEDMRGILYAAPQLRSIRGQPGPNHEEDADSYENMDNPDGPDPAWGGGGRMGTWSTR
Assay: flow cytometry on Nalm-6 cells, 10 nM, fluorescent anti-human IgG secondary antibody
Protocol: Nalm-6 and K562 cells were cultured according to vendor's protocol. Cells were centrifuged and blocked in 1× PBS with 10% FBS at 4° C. for 1 hour. […] The cell suspensions were shaken for 1 hour at 4° C. The cells were washed 3 times with PBS. The cells were incubated with a secondary antibody (e.g., Fluorescein-anti-human IgG or A488-anti-hIgG) at 4° C. for 1 hour. The cells were washed 3 times with PBS and resuspended in PBS. The cellular fluorescence distribution was determined by flow cytometry.

B1: anti-CD19ScFv-UCHT1-CL(Fab) (bispecific antibody)
heavy: EVQLQQSGPELVKPGASMKISCKASGYSFTGYTMNWVKQSHGKNLEWMGLINPYKGVSTYNQKFKDKATLTVDKSSSTAYMELLSLTSEDSAVYYCARSGYYGDSDWYFDVWGQGTTLTVFSASTKGPSVFPLAPSSKSTSGGTAALGCLVKDYFPEPVTVSWNSGALTSGVHTFPAVLQSSGLYSLSSVVTVPSSSLGTQTYICNVNHKPSNTKVDKKVEPKSC
light: DIQMTQTTSSLSASLGDRVTISCRASQDIRNYLNWYQQKPDGTVKLLIYYTSRLHSGVPSKFSGSGSGTDYSLTISNLEQEDIATYFCQQGNTLPWTFAGGTKLEIKRTVAAPSVFIFPPSDEQLKSGTASVVCLLNNFYPREAKVQWKVDNALQSGNSQESVTEQDSGGGGSGGGGSGGGGSEVKLQESGPGLVAPSQSLSVTCTVSGVSLPDYGVSWIRQPPRKGLEWLGVIWGSETTYYNSALKSRLTIIKDNSKSQVFLKMNSLQTDDTAIYYCAKHYYYGGSYAMDYWGQGTSVTVSSGGGGSGGGGSGGGGSDIQMTQTTSSLSASLGDRVTISCRASQDISKYLNWYQQKPDGTVKLLIYHTSRLHSGVPSRFSGSGSGTDYSLTISNLEQEDIATYFCQQGNTLPYTFGGGTKLEIGGGGSDSTYSLSSTLTLSKADYEKHKVYACEVTHQGLSSPVTKSFNRGEC
Question: Does B1 bind?
Answer: binds
